Target: the molecule itself
Assay: SEC-MALS

B1: ΔKAP1 (23-812) (domain or fragment)
chain: GEGSAGGEKRSTAPSAAASASASAAASSPAGGGAEALELLEHCGVCRERLRPEREPRLLPCLHSACSACLGPAAPAAANSSGDGGAAGDGTVVDCPVCKQQCFSKDIVENYFMRDSGSKAATDAQDANQCCTSCEDNAPATSYCVECSEPLCETCVEAHQRVKYTKDHTVRSTGPAKSRDGERTVYCNVHKHEPLVLFCESCDTLTCRDCQLNAHKDHQYQFLEDAVRNQRKLLASLVKRLGDKHATLQKSTKEVRSSIRQVSDVQKRVQVDVKMAILQIMKELNKRGRVLVNDAQKVTEGQQERLERQHWTMTKIQKHQEHILRFASWALESDNNTALLLSKKLIYFQLHRALKMIVDPVEPHGEMKFQWDLNAWTKSAEAFGKIVAERPGTNSTGPAPMAPPRAPGPLSKQGSGSSQPMEVQEGYGFGSGDDPYSSAEPHVSGVKRSRSGEGEVSGLMRKVPRVSLERLDLDLTADSQPPVFKVFPGSTTEDYNLIVIERGAAAAATGQPGTAPAGTPGAPPLAGMAIVKEEETEAAIGAPPTATEGPETKPVLMALAEGPGAEGPRLASPSGSTSSGLEVVAPEGTSAPGGGPGTLDDSATICRVCQKPGDLVMCNQCEFCFHLDCHLPALQDVPGEEWSCSLCHVLPDLKEEDGSLSLDGADSTGVVAKLSPANQRKCERVLLALFCHEPCRPLHQLATDSTFSLDQPGGTLDLTLIRARLQEKLSPPYSSPQEFAQDVGRMFKQFNKLTEDKADVQSIIGLQRFFETRMNEAFGDTKFSAVLVEP
With B1 the “stoichiometry N” value was 2.

B2: KAP1 RBCC domain (RBCC, 23-418) (domain or fragment)
chain: GEGSAGGEKRSTAPSAAASASASAAASSPAGGGAEALELLEHCGVCRERLRPEREPRLLPCLHSACSACLGPAAPAAANSSGDGGAAGDGTVVDCPVCKQQCFSKDIVENYFMRDSGSKAATDAQDANQCCTSCEDNAPATSYCVECSEPLCETCVEAHQRVKYTKDHTVRSTGPAKSRDGERTVYCNVHKHEPLVLFCESCDTLTCRDCQLNAHKDHQYQFLEDAVRNQRKLLASLVKRLGDKHATLQKSTKEVRSSIRQVSDVQKRVQVDVKMAILQIMKELNKRGRVLVNDAQKVTEGQQERLERQHWTMTKIQKHQEHILRFASWALESDNNTALLLSKKLIYFQLHRALKMIVDPVEPHGEMKFQWDLNAWTKSAEAFGKIVAERPGTNST
B2 was tested, and the “stoichiometry N” value was 2.

B3: KAP1 full length protein (KAP1 FL, 1-835) (natural protein)
chain: MAASAAAASAAAASAASGSPGPGEGSAGGEKRSTAPSAAASASASAAASSPAGGGAEALELLEHCGVCRERLRPEREPRLLPCLHSACSACLGPAAPAAANSSGDGGAAGDGTVVDCPVCKQQCFSKDIVENYFMRDSGSKAATDAQDANQCCTSCEDNAPATSYCVECSEPLCETCVEAHQRVKYTKDHTVRSTGPAKSRDGERTVYCNVHKHEPLVLFCESCDTLTCRDCQLNAHKDHQYQFLEDAVRNQRKLLASLVKRLGDKHATLQKSTKEVRSSIRQVSDVQKRVQVDVKMAILQIMKELNKRGRVLVNDAQKVTEGQQERLERQHWTMTKIQKHQEHILRFASWALESDNNTALLLSKKLIYFQLHRALKMIVDPVEPHGEMKFQWDLNAWTKSAEAFGKIVAERPGTNSTGPAPMAPPRAPGPLSKQGSGSSQPMEVQEGYGFGSGDDPYSSAEPHVSGVKRSRSGEGEVSGLMRKVPRVSLERLDLDLTADSQPPVFKVFPGSTTEDYNLIVIERGAAAAATGQPGTAPAGTPGAPPLAGMAIVKEEETEAAIGAPPTATEGPETKPVLMALAEGPGAEGPRLASPSGSTSSGLEVVAPEGTSAPGGGPGTLDDSATICRVCQKPGDLVMCNQCEFCFHLDCHLPALQDVPGEEWSCSLCHVLPDLKEEDGSLSLDGADSTGVVAKLSPANQRKCERVLLALFCHEPCRPLHQLATDSTFSLDQPGGTLDLTLIRARLQEKLSPPYSSPQEFAQDVGRMFKQFNKLTEDKADVQSIIGLQRFFETRMNEAFGDTKFSAVLVEPPPMSLPGAGLSSQELSGGPGDGP
B3 was tested, and the “stoichiometry N” value was 2.

— publication doi:10.1101/553511 (bioRxiv, 2019)
